This note sets out measurements from patent US20210145860A1.

The target in the assay is green fluorescent protein (GFP) [GFP: P42212]. Nature of the assay: cell-based or functional assay.

Sequence of E3-ubiquitin ligase encoded by mRNA Construct G of Table 1 (ER signal-vhhGFP4-cereblon-FLAG-ER retention sequence) (Q96SW2 whole entry): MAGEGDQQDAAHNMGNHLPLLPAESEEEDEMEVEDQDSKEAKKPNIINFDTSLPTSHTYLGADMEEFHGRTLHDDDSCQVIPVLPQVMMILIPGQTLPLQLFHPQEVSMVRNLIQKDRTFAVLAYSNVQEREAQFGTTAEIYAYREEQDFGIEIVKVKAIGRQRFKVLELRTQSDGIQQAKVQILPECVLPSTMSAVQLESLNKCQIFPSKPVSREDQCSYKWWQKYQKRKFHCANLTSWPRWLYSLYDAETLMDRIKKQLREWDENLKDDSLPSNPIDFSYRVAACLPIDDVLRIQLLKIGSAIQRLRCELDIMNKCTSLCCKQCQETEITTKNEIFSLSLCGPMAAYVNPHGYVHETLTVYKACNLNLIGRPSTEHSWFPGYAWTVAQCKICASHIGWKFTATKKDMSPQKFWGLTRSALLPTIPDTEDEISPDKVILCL

The substance “E3-ubiquitin ligase encoded by mRNA Construct G of Table 1 (ER signal-vhhGFP4-cereblon-FLAG-ER retention sequence) (from UniProt Q96SW2 1-442)” yielded a decrease in GFP mean fluorescence intensity (MFI), flow cytometry of HeLa cells at 10:1 Construct G:GFP RNA of 46%.
